Measurements: the supplement of paper PMC12764529
± gives the half width of the 95% confidence interval.

Key:
[1] = folding stability dG unfold from trypsin proteolysis; higher = more stable
Procedure, shortened: (§1)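 How resistant each design was to proteolysis was captured as K50, inferred by Bayesian fitting of sequencing counts. Unfolding free energy was then derived relative to a sequence-predicted unfolded-state K50 and a shared folded-state K50, per protease or combined. Digestion used trypsin and chymotrypsin at 11 threefold-diluted concentrations plus a no-protease condition, on mini-proteins under 80 residues without cysteine in a PA-tagged cDNA display construct. Designs were kept only when AlphaFold2 dimer inter-PAE was above 15.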

[2] = folding stability dG unfold from chymotrypsin proteolysis; higher = more stable
Procedure, shortened: as §1

[3] = folding stability dG unfold (combined trypsin and chymotrypsin); higher = more stable
Procedure, shortened: as §1

Row | Sequence | folding stability dG unfold [1] | folding stability dG unfold [2] | folding stability dG unfold [3]
1 | SAGGSAGGSAGGSNPVDIVEILSYDPEKNTYTFLVKLPDGSTKTITVPGLSVEEIKKELSAGGSAGGSAGGS [r4_357_JUSTAS] | 1.57 ± 0.083 kcal/mol | 3.276 ± 0.029 kcal/mol | 2.86 ± 0.085 kcal/mol
2 | SAGGSAGGSAGGSPLPGQPPEVILIKLDKPVKVGQTITLPDGYKLEVNEETGYLLIVKTSAGGSAGGSAGGS [r4_78_TrROS_Hall] | 0.705 ± 0.05 kcal/mol | 0.992 ± 0.081 kcal/mol | 0.843 ± 0.051 kcal/mol
3 | SAGGSAGGSAGGSPLVIKVDGPAEKLIEEIKKLFPNAKVLSIETHPDGGVTLVVEKIDESAGGSAGGSAGGS [r4_95_TrMRF] | 1.38 ± 0.07 kcal/mol | 2.35 ± 0.069 kcal/mol | 2.03 ± 0.15 kcal/mol
4 | SAGGSAGGSAGGSPNPLLPPVRPKVILKDPKTGTTKTFTTEEEAKKAVESGEYTVLKIESAGGSAGGSAGGS [r10_520_JUSTAS] | -0.0844 ± 0.066 kcal/mol | 0.353 ± 0.11 kcal/mol | 0.217 ± 0.058 kcal/mol
5 | SAGGSAGGSAGGSPPNMEPVETQEYQIGNDFIIKVDTYRMPDPDMYFVDIEITPDALKASAGGSAGGSAGGS [r4_163_TrROS] | 0.82 ± 0.12 kcal/mol | 1.82 ± 0.17 kcal/mol | 1.28 ± 0.3 kcal/mol
6 | SAGGSAGGSAGGSSDIVVTSETLPGPTRLVRITIPEKGETIELTLPASESIEQAVALLLSAGGSAGGSAGGS [r4_393_JUSTAS] | 0.253 ± 0.1 kcal/mol | 0.0828 ± 0.4 kcal/mol | 0.381 ± 0.16 kcal/mol
7 | SAGGSAGGSAGGSSIRIWIFFPGYFFRITIKPDPGNPNMIKIDITEIIPPDQMDDEDLISAGGSAGGSAGGS [r4_316_TrROS] | 3.53 ± 0.26 kcal/mol | 4.38 ± 0.14 kcal/mol | 4.38 ± 0.3 kcal/mol
8 | SAGGSAGGSAGGSSMSISVLEVRELPNGTLEITTVDYNPDNGYTTTTTYTLPPGQPLLISAGGSAGGSAGGS [r4_133_JUSTAS] | 1.8 ± 0.053 kcal/mol | 1.62 ± 0.045 kcal/mol | 1.74 ± 0.068 kcal/mol
9 | SAGGSAGGSAGGSSSIYYDPRYPNVAVNPETGEAVTGIPLEELEKLGATPVGPDWVRIDSAGGSAGGSAGGS [r4_306_TrMRF] | -0.659 ± 0.15 kcal/mol | 0.196 ± 0.061 kcal/mol | -0.0656 ± 0.13 kcal/mol
10 | SAGGSAGGSAGGSSSSASVEVKTETSVSYDPSTGRTYTTTTSKYPLTNTTVTTTTTDPTSAGGSAGGSAGGS [r10_187_JUSTAS] | 0.955 ± 0.03 kcal/mol | 0.139 ± 0.15 kcal/mol | 0.621 ± 0.17 kcal/mol
11 | SAGGSAGGSAGGSSTAVIRRPETGEEHTFDLPEDATEEDIRARLEAAGFPPGSEIVEIVESAGGSAGGSAGG [r7_70_JUSTAS] | 1.21 ± 0.067 kcal/mol | 1.91 ± 0.048 kcal/mol | 1.66 ± 0.035 kcal/mol
12 | SAGGSAGGSAGGSSVKLTLPDGSQVTVDIHPDGTATVTTFPGDTPSVTNMPVSAFQAALPSAGGSAGGSAGG [r7_178_JUSTAS] | 1.72 ± 0.44 kcal/mol | 1.79 ± 0.21 kcal/mol | 2.08 ± 0.53 kcal/mol
13 | SAGGSAGGSAGGSTILILDPETKKLYLIRIEKREDGKEELKLKVYEFDLKTGEMKEYELSAGGSAGGSAGGS [r10_1041_TrROS_Hall] | 3.25 ± 0.2 kcal/mol | 4.68 ± 0.19 kcal/mol | 4.15 ± 0.19 kcal/mol
14 | SAGGSAGGSAGGSTITLRIEGLSKEEIEELARKLGAKVVSFDEKNKTVTIELPPGAKLLSAGGSAGGSAGGS [r4_3_TrROS_Hall] | 1.88 ± 0.054 kcal/mol | 2.19 ± 0.044 kcal/mol | 2.09 ± 0.084 kcal/mol
15 | SAGGSAGGSAGGSTPSFTPVLELEFEFENDVVVRVRLYRLPDEDTYLLEVEVAPDSLKDSAGGSAGGSAGGS [r4_163_TrMRF] | 2.88 ± 0.093 kcal/mol | 4.11 ± 0.1 kcal/mol | 3.62 ± 0.13 kcal/mol
16 | SAGGSAGGSAGGSVIEVKDPNGKKYIIIKTPDPNVYPVTVIPPDGTTTVTPVSDYSKLLSSAGGSAGGSAGG [r7_769_JUSTAS] | -0.893 ± 0.4 kcal/mol | -0.464 ± 0.56 kcal/mol | -0.527 ± 0.42 kcal/mol
17 | SAGGSAGGSAGGSVSELPPISTKTTTTVTTTSDGTKVVYTTTTYSDGTTTTTSGPVPAASAGGSAGGSAGGS [r10_682_JUSTAS] | 0.565 ± 0.049 kcal/mol | 1.14 ± 0.067 kcal/mol | 1.09 ± 0.13 kcal/mol
18 | SAGGSAGGSAGGSVSSVSTTSSPVVDPETGPASTVTTHSVPGGPATTVVMTPDSTTTTGSAGGSAGGSAGGS [r10_384_JUSTAS] | 1.92 ± 0.081 kcal/mol | 1.43 ± 0.038 kcal/mol | 1.59 ± 0.074 kcal/mol

Row | Sequence | folding stability dG unfold [1] | folding stability dG unfold [2] | folding stability dG unfold [3]
19 | SAGGSAGGSAGGSVSVNIPLEELKERVPPSLSVSVSPTPVPEGGGVRVPVTLTSPAELGSAGGSAGGSAGGS [r4_119_JUSTAS] | 1 ± 0.031 kcal/mol | 0.471 ± 0.025 kcal/mol | 0.763 ± 0.041 kcal/mol
20 | SAGGSAGGSAGGSVYIDPDKGYLVMWNEEDGYIVKYPIDPPNKIPSVDIEPIPPGDPLFSAGGSAGGSAGGS [r4_409_TrROS] | 1.51 ± 0.074 kcal/mol | 1.13 ± 0.07 kcal/mol | 1.26 ± 0.11 kcal/mol
21 | SAGGSAGGSAGGSWLVRIPGHPIIFKGPEDQAEGIARELQKNGKPIEIEIIDPDEMKKFSAGGSAGGSAGGS [r4_131_TrROS] | 0.286 ± 0.12 kcal/mol | 1.12 ± 0.14 kcal/mol | 0.643 ± 0.23 kcal/mol
22 | SAGGSAGGSAGGSYTVSEIPEEGLVLKTLPNGVVTRYKVSPDGSLEEIATFEPGNGVLIKSAGGSAGGSAGG [r7_659_JUSTAS] | -0.0116 ± 0.3 kcal/mol | 1.1 ± 0.096 kcal/mol | 0.766 ± 0.11 kcal/mol
23 | SAGGSAGGSAGGTAEAVRKLAEEFSQQHGMPIKDVEVQRPPNKWKPVIRYPDNGKWIEISAGGSAGGSAGGS [r10_161_TrROS] | 0.298 ± 0.086 kcal/mol | 0.465 ± 0.13 kcal/mol | 0.388 ± 0.2 kcal/mol
24 | SAGGSAGGSAGGTAEEIKEAIEELGYKVEVEVTDDAVKIRLELPNGEKFEFEIPKEALESAGGSAGGSAGGS [r10_1029_TrMRF] | 2.3 ± 0.22 kcal/mol | 1.92 ± 0.11 kcal/mol | 1.99 ± 0.16 kcal/mol
25 | SAGGSAGGSAGGTAEIYFPNFPIRIDSVQLSPEKNHVQVSMENPDGPPVKGTMPPKDGILSAGGSAGGSAGG [r7_427_TrROS] | 1.58 ± 0.031 kcal/mol | -0.127 ± 0.027 kcal/mol | 0.903 ± 0.042 kcal/mol
26 | SAGGSAGGSAGGTITLPGGAEVTEVERLPGGVLKITGVLTLPGGPVTVEVTLPVTPELLESAGGSAGGSAGG [r7_38_JUSTAS] | 0.772 ± 0.034 kcal/mol | 1.03 ± 0.049 kcal/mol | 1.03 ± 0.099 kcal/mol
27 | SAGGSAGGSAGGTKTYTITNEDGSKITIEEVDGKYVITYPNGEKKEIEGMTLEELLKALSAGGSAGGSAGGS [r10_569_TrROS_Hall] | 4.22 ± 0.58 kcal/mol | 4.26 ± 0.21 kcal/mol | 4.35 ± 0.18 kcal/mol
28 | SAGGSAGGSAGGTPIAETEVSEDPATGKLITTSKSPTDPKVYVTTTDLATGVPTTTPLLSAGGSAGGSAGGS [r10_1034_JUSTAS] | 0.761 ± 0.031 kcal/mol | 0.213 ± 0.047 kcal/mol | 0.524 ± 0.064 kcal/mol
29 | SAGGSAGGSAGGVDPTPDGILRVRVVIKDPNGDVFSEKEVEMTPEELEALKKAGYVILESAGGSAGGSAGGS [r10_749_JUSTAS] | 1.43 ± 0.033 kcal/mol | 2.022 ± 0.018 kcal/mol | 1.82 ± 0.054 kcal/mol
30 | SAGGSAGGSAGGVIVLKSDNSVIIITKKVYTENGKPKKTIIEKKNLKKKPPKPLSIEIISAGGSAGGSAGGS [r10_1043_JUSTAS] | 0.77 ± 0.067 kcal/mol | 0.374 ± 0.27 kcal/mol | 0.681 ± 0.15 kcal/mol
31 | SAGGSAGGSAGGVKYLTLTLPDGTVIKVPVDEPVEIRGEDGRPVEIVEAKVTEGPPGLGSAGGSAGGSAGGS [r10_20_JUSTAS] | 0.963 ± 0.042 kcal/mol | 2.326 ± 0.021 kcal/mol | 1.94 ± 0.072 kcal/mol
32 | SAGGSAGGSAGGVPEDVIMSPVSTTLVEKEVLSTEVTPEGAPKTVEKVLIVEKTLEPLLSAGGSAGGSAGGS [r10_758_JUSTAS] | 0.0499 ± 0.05 kcal/mol | -0.853 ± 0.24 kcal/mol | -0.429 ± 0.29 kcal/mol
33 | SAGGSAGGSAGGVPPGAPELRLKVTVTVTTVELDEDTNELTTTTETVTVEVTVKVGETLSAGGSAGGSAGGS [r10_133_TrROS_Hall] | 0.616 ± 0.11 kcal/mol | 1.17 ± 0.09 kcal/mol | 1.2 ± 0.18 kcal/mol
34 | SAGGSAGGSAGGVPRLERFTLSPNGLPVRIFVDGDRALVVFEGPDGGLAVATFAVSDIPFSAGGSAGGSAGG [r7_653_TrMRF] | 0.857 ± 0.03 kcal/mol | 1.62 ± 0.047 kcal/mol | 1.31 ± 0.064 kcal/mol
35 | SAGGSAGGSAGGVSPEANIKEVSKDPKTGLTTSLAKDPNSDNEITITKDSSGNSSINISSAGGSAGGSAGGS [r10_450_JUSTAS] | 0.121 ± 0.038 kcal/mol | 1.08 ± 0.029 kcal/mol | 0.813 ± 0.073 kcal/mol
36 | SAGGSAGGSAGGWIFIIEIDPDNGEIKINWPNGNSIKIPPEDLDNMPIEIKPIPPPPNDKSAGGSAGGSAGG [r7_99_TrROS] | 1.83 ± 0.19 kcal/mol | 1.88 ± 0.097 kcal/mol | 1.87 ± 0.28 kcal/mol
